Assay results taken from patent publication US20240182590A1, “METHOD OF TREATMENT OF PATIENTS HAVING REDUCED SENSITIVITY TO A BCL-2 INHIBITOR” (argenx BV, priority 2020, published 2024).
“Also recorded” adds a separate entry of the source.

T1: interaction of CD70 with its receptor CD27 (Homo sapiens, UniProt P32970)
T1 sequence (P32970 1-193): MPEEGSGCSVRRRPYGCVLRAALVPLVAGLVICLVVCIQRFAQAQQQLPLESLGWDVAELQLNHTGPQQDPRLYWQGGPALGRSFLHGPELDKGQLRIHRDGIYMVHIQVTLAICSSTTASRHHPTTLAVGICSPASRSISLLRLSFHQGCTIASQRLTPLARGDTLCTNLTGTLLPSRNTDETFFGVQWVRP


Assays:
[1] = cited from earlier work
[2] = test system: total mononuclear cell fraction of M4/5 samples; conditions: M4/5 AML samples, ex vivo; cited from earlier work
[3] = test system: ROS-low LSCs from mono-AML and prim-AML; conditions: versus ROS-low LSCs from primitive AML (Pei et al. 2020); cited from earlier work
[4] = test system: LSCs from VEN+AZA resistant monocytic AML bone marrow samples; experiment: Colony forming unit (CFU) assay after incubation with antibody and NK cells; assay type: cell-based, human; conditions: 10 μg/ml antibody, NK cells 1:5 T:E, 24-hour incubation, then 14 days in methocult medium
Protocol: FIG. 9 is a bar graph showing the effect of antibody treatment on leukemic stem cells from CD70 positive VEN+AZA resistant monocytic AML bone marrow samples. Data is normalized to the no antibody control colony forming units (CFU) for isotype control, blocking anti-CD70 antibody 41D12 FcDead and cusatuzumab. VEN+AZA resistant monocytic AML bone marrow samples were incubated with NK cells (1:5 T:E ratio) in the presence of antibodies (10 μg/ml) and then cultured in CFU medium in order to determine if LSCs were also efficiently targeted by cusatuzumab-mediated NK-dependent ADCC. […] One-way ANOVA test was used to determine significance. ****p<0.0001.
In order to test if CD70 positive LSCs from VEN+AZA resistant monocytic AML bone marrow samples could be targeted by cusatuzumab, bone marrow samples coming from VEN+AZA resistant samples were first incubated with cusatuzumab (10 μg/ml) and NK cells isolated from PBMCs from healthy donor (1:5 T:E ratio). After a 24-hour incubation samples were moved to methocult medium and further cultured in order to check if LSCs were targeted by cusatuzumab-mediated ADCC. No treatment, human IgG1 isotype control and blocking 41D12 FcDead antibody were used as negative controls. Cells were incubated in cell culture incubator at 37° C. for 14 days and colony forming units (CFU) were estimated by counting growing colonies.

[5] = test system: CD70-expressing tumor cells; conditions: cited from earlier work
[6] = test system: VEN+AZA resistant monocytic AML cells; experiment: Patient-derived xenograft mouse model, monocytic AML cells in mouse bone marrow; assay type: in vivo, NSGS mice; conditions: 3 doses every 3 days, cusatuzumab 10 mg/kg, Ven 100 mg/kg + Aza 3 mg/kg
Protocol: FIG. 10 is a bar graph showing the efficacy of anti-CD70 antibody treatment in the presence of NK cells in a patient-derived xenograft mouse model. NSGS mice were engrafted with VEN+AZA resistant monocytic AML bone marrow sample. When engraftment level in bone marrow reached around 25% of leukemic cells, animals were treated 3 times every 3 days with cusatuzumab or VEN+AZA with or without a single infusion of 1.5×10^6 NK cells. After 9 days animals were sacrificed, bone marrow from femur isolated and the number of malignant monocytic cells in bone marrow was determined. […] Mann-Whitney test was used to determine significance. *p<0.05, **p<0.01, ***p<0.001, ****p<0.0001.
Patient samples injected in NSGS mice engraft in mouse bone marrow. The efficiency of anti-leukemic compounds can be measured stringently using therapeutic approaches after full engraftment of patient-derived samples and by determination of the reduction of malignant cells in mouse bone marrow. 2×10^6 cells from bone marrow from VEN+AZA resistant monocytic AML per NSGS mouse were engrafted for 42 days. One cohort of animals was treated with vehicle, combination of 100 mg/kg Ven and 3 mg/kg Aza or 10 mg/kg cusatuzumab. […] One day after the third dose animals were sacrificed and bone marrow from femur was isolated and samples were analysed by flow cytometry to determine the number of monocytic AML cells. […]

[7] = test system: CD70 positive monocytic AML cells; experiment: Cusatuzumab-mediated NK-dependent ADCC on primary AML bone marrow samples; assay type: cell-based, human; conditions: 10 μg/ml, 24 hours
Text: FIG. 7B is a bar graph showing the effect on monocytic and primitive AML cells. following administration of cusatuzumab, 41D12 FcDead antibody and a vehicle control. […] One-way ANOVA test was used to determine significance. *p<0.05.
FIG. 7C is a bar graph showing the effect on monocytic AML cells following administration of cusatuzumab, 41D12 FcDead antibody and a vehicle control. […] One-way ANOVA test was used to determine significance. ***p<0.001.
Cusatuzumab is an afucosylated anti-human CD70 antibody with enhanced properties to mediate NK-dependent antibody-dependent cellular cytotoxicity (ADCC) (Silence et al. 2014). VEN+AZA resistant CD70 positive monocytic AML (CD45^bright/SSC^high/CD38^+/CD34^−/CD33^+/CD11b^+/CD70^+) and mixed phenotype samples containing CD70 positive monocytic cells (CD45^bright/SSC^high/CD38^+/CD34^−/CD33^+/CD11b^+/CD70^+) and CD70 negative VEN+AZA sensitive primitive cells (CD45^medium/SSC^low/CD34^−/CD33^+/CD11b^+/CD70^− containing both CD38^+ and CD38^− populations) (FIG. 7A) were tested for sensitivity to cusatuzumab-mediated ADCC. Both types of primary bone marrow samples were treated with cusatuzumab at 10 μg/ml concentration and co-incubated with human NK cells isolated by a negative selection from healthy donor PBMCs. NK cells were added in 1:5 and 1:15 target to effector cells (T:E) ratio to monocytic AML and mixed phenotype bone marrow samples, respectively. Cells were co-cultured for 24 hours at 37° C. in cell culture incubator. Flow cytometry analysis was performed in order to measure number of primitive and monocytic AML cells and estimate the level of ADCC for particular sample. […] This supports the specificity of cusatuzumab-mediated effects in the targeting of CD70-positive VEN+AZA resistant monocytic AML cells.

[8] = test system: CD70-induced CD27 signaling; conditions: Silence et al. (2014); cited from earlier work
[9] = test system: leukemic stem cells (LSCs) in AML patients; conditions: in combination with azacitidine; see WO2018/229303; cited from earlier work
[10] = target: T1, interaction of CD70 with its receptor CD27; conditions: Silence et al. (2014); cited from earlier work

Molecule | aqueous solubility [1] | venetoclax sensitivity [2] | resistance of ROS-low LSCs from monocytic AML [3] | number of growing colonies (CFU) versus no treatment control [4] | antibody dependent cellular phagocytosis (ADCP) of CD70-expressing cells ([5]; Silence et al. (2014)) | lysis of CD70-expressing tumor cells via antibody dependent cell-mediated cytotoxicity (ADCC) [5] | lysis of CD70-expressing tumor cells via complement dependent cytotoxicity (CDC) [5] | malignant human CD45+CD11b+CD117− cells in mouse bone marrow ([6]; in the absence of human NK cells) | malignant human CD45+CD11b+CD117− cells in mouse bone marrow ([6]; in the presence of human NK cells (1.5×10^6)) | NK cell-dependent ADCC of monocytic cells ([7]; VEN+AZA resistant monocytic AML bone marrow sample, NK cells 1:5 T:E) | NK cell-dependent ADCC of monocytic cells ([7]; VEN+AZA resistant monocytic AML bone marrow sample, NK cells 1:5 T:E, listed as Cusatuzumab) | NK cell-dependent ADCC of monocytic cells ([7]; mixed phenotype AML bone marrow sample, NK cells 1:15 T:E) | NK cell-dependent ADCC of monocytic cells ([7]; mixed phenotype AML bone marrow sample, NK cells 1:15 T:E, listed as Cusatuzumab) | CD70-induced CD27 signaling [8] | leukemic stem cells (LSCs) in AML patients [9] | interaction of CD70 with its receptor CD27 [10]
CC1(C)CCC(CN2CCN(c3ccc(C(=O)NS(=O)(=O)c4ccc(NCC5CCOCC5)c([N+](=O)[O-])c4)c(Oc4cnc5[nH]ccc5c4)c3)CC2)=C(c2ccc(Cl)cc2)C1 [venetoclax, 4-(4-{[2-(4-chlorophenyl)-4,4dimethylcyclohex-1-en-1-yl]methyl}piperazin-1-yl)-N-({3-nitro-4-[(tetrahydro-2H-pyran-4ylmethyl)amino]phenyl}sulfonyl)-2-(1H-pyrrolo[2,3-b]pyridin-5-yloxy)benzamide] | very low | decreased | increased resistance |  |  |  |  |  |  |  |  |  |  |  |  | 
cusatuzumab: monoclonal IgG1 anti-CD70 antibody, afucosylated for enhanced ADCC; CDR, VH and VL sequences in Table 1 (antibody, V domains shown) VH: EVQLVESGGGLVQPGGSLRLSCAASGFTFSVYYMNWVRQAPGKGLEWVSDINNEGGTTYYADSVKGRFTISRDNSKNSLYLQMNSLRAEDTAVYYCARDAGYSNHVPIFDSWGQGTLVTVSS VL: QAVVTQEPSLTVSPGGTVTLTCGLKSGSVTSDNFPTWYQQTPGQAPRLLIYNTNTRHSGVPDRFSGSILGNKAALTITGAQADDEAEYFCALFISNPSVEFGGGTQLTVLG |  |  |  | clear drop in the number of growing colonies; also recorded: significantly reduce the number of LSCs | increase antibody dependent cellular phagocytosis (ADCP) | lyse CD70-expressing tumor cells | lyse CD70-expressing tumor cells | no significant effect | significant reduction; also recorded: significantly reduced levels of monocytic AML cells | significantly targeted | significantly mediate NK-dependent cell killing | significantly targeted | significantly mediate NK-dependent cell killing | inhibit CD70-induced CD27 signaling | efficiently reduced | inhibit the interaction of CD70 with its receptor CD27
